Read-outs that look alike come from different tables or passages of the source.
Assays:
[1] = molecular target: T1, Cathepsin B from bovine spleen (bovine, UniProt P07688 80-332); assay: cell-based or functional assay
[2] = molecular target: T1, Cathepsin B from bovine spleen; assay: cell-based or functional assay; remark: listed apart in the source

| Binder | Cathepsin B inhibition test, 2 mM peptide [1] | Cathepsin B inhibition test, 2 mM peptide [2] |
| --- | --- | --- |
| H-Met-His-Arg-OH [H-MHR-OH] | 96.8 |  |
| H-Met-Asp-Lys-OH [H-MDK-OH] | 104 |  |
| H-Met-Asp-Arg-OH [H-MDR-OH] | 102 |  |
| H-Met-Asn-Arg-OH (also: MGO-modified, site not given here) [MGO-modified H-MNR-OH] | 78.6 |  |
| H-Thr-Asp-Lys-OH [H-TDK-OH] | 103 |  |
| H-Phe-Thr-Lys-OH (also: MGO-modified, site not given here) [MGO-modified H-FTK-OH] |  | 76.6 |
| Ac-Leu-Gln-Lys-OH [Ac-LQK-OH] | 102 |  |
| H-Val-Asn-Arg-OH [H-VNR-OH] | 97.8 |  |
| H-YINR-OH (also: MGO-modified, site not given here) [MGO-modified H-YINR-OH] |  | 79.2 |
| Ac-IFVTMLR-OH [Ac-IFVTMLR-OH] |  | 88.3 |
| H-Phe-Thr-Lys-OH [H-FTK-OH] |  | 148 |
| Ac-YINR-OH [Ac-YINR-OH] |  | 93.1 |
| H-HNIR-OH [H-HNIR-OH] |  | 152 |
| Ac-YINR-OH (also: MGO-modified, site not given here) [MGO-modified Ac-YINR-OH] |  | 99 |
| H-Leu-Gln-Lys-OH (also: MGO-modified, site not given here) [MGO-modified H-LQK-OH] | 95.3 |  |
| H-Thr-Asn-Arg-OH [H-TNR-OH] | 103 |  |
| H-YINR-OH [H-YINR-OH] |  | 142 |
| H-Thr-Asp-Lys-OH (also: MGO-modified, site not given here) [MGO-modified H-TDK-OH] | 87.5 |  |
| H-Val-Asn-Arg-OH (also: MGO-modified, site not given here) [MGO-modified H-VNR-OH] | 82.6 |  |

| Binder | Cathepsin B inhibition test, 2 mM peptide [1] | Cathepsin B inhibition test, 2 mM peptide [2] |
| --- | --- | --- |
| Ac-Phe-Asp-Arg-OH (also: MGO-modified, site not given here) [MGO-modified Ac-FDR-OH] |  | 44.8 |
| H-Met-His-Arg-OH (also: MGO-modified, site not given here) [MGO-modified H-MHR-OH] | 80.7 |  |
| Ac-Thr-Asn-Arg-OH (also: MGO-modified, site not given here) [MGO-modified Ac-TNR-OH] | 91.7 |  |
| H-Met-Asp-Arg-OH (also: MGO-modified, site not given here) [MGO-modified H-MDR-OH] | 74.5 |  |
| Ac-Val-Asn-Arg-OH (also: MGO-modified, site not given here) [MGO-modified Ac-VNR-OH] | 68.5 |  |
| Ac-Met-Asn-Arg-OH [Ac-MNR-OH] | 101 |  |
| Ac-Thr-Asp-Lys-OH (also: MGO-modified, site not given here) [MGO-modified Ac-TDK-OH] | 92.8 |  |
| H-Ile-Asp-Arg-OH [H-IDR-OH] | 98 |  |
| Ac-Met-Asp-Arg-OH (also: MGO-modified, site not given here) [MGO-modified Ac-MDR-OH] | 88.6 |  |
| H-Ile-Asp-Arg-OH (also: MGO-modified, site not given here) [MGO-modified H-IDR-OH] | 85.6 |  |
| Ac-Met-His-Arg-OH (also: MGO-modified, site not given here) [MGO-modified Ac-MHR-OH] | 90.1 |  |
| H-Thr-Asn-Arg-OH (also: MGO-modified, site not given here) [MGO-modified H-TNR-OH] | 91.9 |  |
| Ac-Phe-Thr-Lys-OH (also: MGO-modified, site not given here) [MGO-modified Ac-FTK-OH] |  | 105 |
| H-Leu-Gln-Lys-OH [H-LQK-OH] | 102 |  |
| Ac-Met-Asp-Lys-OH (also: MGO-modified, site not given here) [MGO-modified Ac-MDK-OH] | 99.4 |  |
| Ac-HNIR-OH [Ac-HNIR-OH] |  | 172 |
| Ac-Thr-Asp-Lys-OH [Ac-TDK-OH] | 101 |  |
| Ac-Phe-Asp-Arg-OH [Ac-FDR-OH] |  | 85.6 |
| H-IFVTMLR-OH [H-IFVTMLR-OH] |  | 80.5 |

| Binder | Cathepsin B inhibition test, 2 mM peptide [1] | Cathepsin B inhibition test, 2 mM peptide [2] |
| --- | --- | --- |
| Ac-Val-Asn-Arg-OH [Ac-VNR-OH] | 99.8 |  |
| H-HNIR-OH (also: MGO-modified, site not given here) [MGO-modified H-HNIR-OH] |  | 103 |
| H-IFVTMLR-OH (also: MGO-modified, site not given here) [MGO-modified H-IFVTMLR-OH] |  | 78.7 |
| H-Phe-Asp-Arg-OH [H-FDR-OH] |  | 175 |
| H-Phe-Asp-Arg-OH (also: MGO-modified, site not given here) [MGO-modified H-FDR-OH] |  | 71.2 |
| Ac-Met-Asp-Lys-OH [Ac-MDK-OH] | 110 |  |
| Ac-Ile-Asp-Arg-OH (also: MGO-modified, site not given here) [MGO-modified Ac-IDR-OH] | 81.8 |  |
| H-Met-Asp-Lys-OH (also: MGO-modified, site not given here) [MGO-modified H-MDK-OH] | 70.6 |  |
| Ac-Thr-Asn-Arg-OH [Ac-TNR-OH] | 96.5 |  |
| Ac-HNIR-OH (also: MGO-modified, site not given here) [MGO-modified Ac-HNIR-OH] |  | 107 |
| Ac-Leu-Gln-Lys-OH (also: MGO-modified, site not given here) [MGO-modified Ac-LQK-OH] | 90.2 |  |
| Ac-Met-Asn-Arg-OH (also: MGO-modified, site not given here) [MGO-modified Ac-MNR-OH] | 86.9 |  |
| H-Met-Gln-Lys-OH [H-MQK-OH] |  | 127 |
| Ac-Met-His-Arg-OH [Ac-MHR-OH] | 101 |  |
| Ac-Phe-Thr-Lys-OH [Ac-FTK-OH] |  | 149 |
| Ac-Ile-Asp-Arg-OH [Ac-IDR-OH] | 93.5 |  |
| Ac-Met-Asp-Arg-OH [Ac-MDR-OH] | 107 |  |
| Ac-IFVTMLR-OH (also: MGO-modified, site not given here) [MGO-modified Ac-IFVTMLR-OH] |  | 92.6 |

— US20150337019A1 (MANUKAMED HOLDINGS LIMITED PARTNERSHIP, published 2015)
